The values below come from paper PMC11099347 (Cell Genomics, 2024).

The target of this test is T1, GST-tagged wild-type NRDE2 (human, UniProt Q9H7Z3 1-1164).
T1 sequence: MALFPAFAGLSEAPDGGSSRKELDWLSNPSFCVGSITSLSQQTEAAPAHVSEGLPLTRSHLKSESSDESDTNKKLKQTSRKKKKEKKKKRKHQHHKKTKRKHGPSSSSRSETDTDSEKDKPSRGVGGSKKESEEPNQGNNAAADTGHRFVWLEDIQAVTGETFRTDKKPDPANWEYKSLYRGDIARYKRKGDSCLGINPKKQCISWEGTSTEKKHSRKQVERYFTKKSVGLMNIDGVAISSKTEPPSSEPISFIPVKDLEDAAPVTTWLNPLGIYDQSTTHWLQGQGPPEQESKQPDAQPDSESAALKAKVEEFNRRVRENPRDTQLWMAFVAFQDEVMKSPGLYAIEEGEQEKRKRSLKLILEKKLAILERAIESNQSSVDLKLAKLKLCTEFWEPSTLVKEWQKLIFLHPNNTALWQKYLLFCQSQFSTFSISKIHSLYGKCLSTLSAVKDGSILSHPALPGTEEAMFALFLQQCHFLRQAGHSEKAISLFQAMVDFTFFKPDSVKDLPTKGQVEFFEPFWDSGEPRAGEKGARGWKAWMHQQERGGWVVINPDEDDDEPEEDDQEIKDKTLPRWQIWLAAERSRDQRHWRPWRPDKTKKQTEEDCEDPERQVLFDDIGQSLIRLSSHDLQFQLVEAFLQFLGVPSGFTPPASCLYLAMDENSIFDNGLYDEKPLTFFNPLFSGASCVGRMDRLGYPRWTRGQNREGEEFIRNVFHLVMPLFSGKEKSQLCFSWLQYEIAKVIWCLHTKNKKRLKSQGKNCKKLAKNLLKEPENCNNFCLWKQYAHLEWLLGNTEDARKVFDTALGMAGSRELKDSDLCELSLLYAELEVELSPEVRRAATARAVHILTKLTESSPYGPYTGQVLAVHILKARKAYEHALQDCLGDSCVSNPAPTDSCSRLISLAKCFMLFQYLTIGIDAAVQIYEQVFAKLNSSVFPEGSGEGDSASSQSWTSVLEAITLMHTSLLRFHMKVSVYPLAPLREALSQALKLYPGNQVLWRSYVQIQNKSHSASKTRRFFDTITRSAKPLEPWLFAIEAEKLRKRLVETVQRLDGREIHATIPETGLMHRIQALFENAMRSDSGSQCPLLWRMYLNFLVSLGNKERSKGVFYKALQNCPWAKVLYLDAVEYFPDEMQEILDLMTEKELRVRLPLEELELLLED
The experiment in a line: pull-down.

B1: His-tagged CK2A2 (natural protein)
chain: MPGPAAGSRARVYAEVNSLRSREYWDYEAHVPSWGNQDDYQLVRKLGRGKYSEVFEAINITNNERVVVKILKPVKKKKIKREVKILENLRGGTNIIKLIDTVKDPVSKTPALVFEYINNTDFKQLYQILTDFDIRFYMYELLKALDYCHSKGIMHRDVKPHNVMIDHQQKKLRLIDWGLAEFYHPAQEYNVRVASRYFKGPELLVDYQMYDYSLDMWSLGCMLASMIFRREPFFHGQDNYDQLVRIAKVLGTEELYGYLKKYHIDLDPHFNDILGQHSRKRWENFIHSENRHLVSPEALDLLDKLLRYDHQQRLTAKEAMEHPYFYPVVKEQSQPCADNAVLSSGLTAAR
As for B1, the binding result was “binds”.

B2: His-tagged CK2B (natural protein)
chain: not shown
As for B2, the binding result is recorded as “binds”.
